{"source": "patent US20190153459A1", "about": "“RECOMBINANT POLYNUCLEOTIDE INVOLVED IN LACTONE SYNTHESIS AND PROCESS FOR SYNTHESIS OF LACTONES THEREOF” (Council of Scientific & Industrial Research, priority 2016, published 2019)", "key": {"[1]": {"molecular_target": "T1, MiEH2 (Mangifera indica, UniProt A0A1U9ZCB5)", "T1 sequence (A0A1U9ZCB5 1-318)": "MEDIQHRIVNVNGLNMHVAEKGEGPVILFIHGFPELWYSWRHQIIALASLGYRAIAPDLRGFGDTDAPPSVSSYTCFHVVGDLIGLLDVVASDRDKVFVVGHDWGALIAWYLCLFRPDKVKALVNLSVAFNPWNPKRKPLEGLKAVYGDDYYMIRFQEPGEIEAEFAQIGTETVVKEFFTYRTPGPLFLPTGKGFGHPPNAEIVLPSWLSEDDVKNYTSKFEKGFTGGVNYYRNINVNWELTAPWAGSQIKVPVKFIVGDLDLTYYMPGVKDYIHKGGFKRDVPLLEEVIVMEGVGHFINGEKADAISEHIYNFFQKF", "assay": "MiEH2 activity assay and enzyme kinetics with epoxide substrates (HRMS)", "format": "biochemical", "conditions": "for product formation by MiEH2 with substrate (HRMS extracted ion chromatogram): 200 μM substrate, pH 7.0, 30° C., FIG. 3; for Vmax: recombinant MiEH2, substrate kinetics", "protocol": "(§1) Similar activity assays were carried out with protein expressed from empty vector for confirmation of EH2 activity. Optimum pH was determined by calculating activity at varied range of pH in phosphate citrate buffer at 30° C., whereas temperature optima was determined by calculating MiEH2 activity in phosphate citrate buffer pH 7 at various temperatures. After incubation and catalytic activity of EH 2, products were extracted in chloroform:methanol (2:1); completely dried in vacuum evaporator and reconstituted in the methanol. HRMS analysis carried out by accurate mass (molecular ion) identification. […] Extracted compounds from CSO and TSO assay reactions were separated by water (A):methanol (B) solvent gradient, 0-1 min 80% (A)/20% (B); 1-2 min 60% (A)/40% (B); 2-4 min 40% (A)/60% (B); 4-11 min 20% (A)/80% (B); 11-16 min 0% (A)/100% (B), hold for 2 min and again back to 80% (A)/20% (B) in 3 min with 2 min hold at flow rate 500 μl min^−1. […] Quantitative analysis of CSO and TSO assay products was done by plotting standard graph of product standards. Full scans for both programs were acquired on positive ion mode with AGC target value of 1E6, resolution of 70,000 at scan range 100-500 m/z, and maximum ion injection time (IT) of 250 ms."}, "[2]": {"system": "ethylene treated mango fruits", "assay": "Transient over expression of SEQ ID No. 1 (MiEH2) in mango fruits via agroinfiltration, lactone content by GC-FID", "format": "in vivo, Mangifera indica", "method": "The full length sequence of MiEH2, i.e. SEQ ID No. 1 was cloned in a pBI121 plant expression vector between CaMV 35S promoter and GusA gene. Terminal primers were designed (Table 1A) to clone genes at BamHI restriction site. Resulted correct oriented construct pBI121+SEQ ID No. 1 and pBI121 empty vector as control were transformed in the Agrobacterium GV3101 strain for transient expression studies. Separate Agrobacterium cultures (5 mL) were initiated from individual colonies in YEB medium having appropriate antibiotics and incubated overnight at 28° C. This culture was transferred to 50 mL induction medium comprising 0.5% beef extract, 0.1% yeast extract, 0.5% peptone, 0.5% sucrose, 2 mM MgSO4, […] acetosyringone, 10 mM MES, pH 5.6, having appropriate antibiotics, and again grown overnight. Cultures were recovered by centrifugation on the next day, resuspended in infiltration medium (10 mM MgCl2, 10 mM MES, […] acetosyringone, pH 5.6) till optical density reached 1.0. This suspension was again incubated at 28° C. with gentle agitation for 2 hrs.\nOver expression studies for EH2 were carried out by Agrobacterium mediated infiltration in ethylene treated mango fruits at 3DAH stage by using hypodermic syringe. Equal volumes of said constructs i.e. pBI121+MiEH2 and pBI121 empty vector construct were used for infiltration in two different halves of same mango fruit separated by fruit stone. […] Thus control (empty vector) and test over expressions were carried out in same fruit to avoid error in lactone content analysis. Five distinct mango fruits were used for overexpression study of MiEH2. Infiltrated fruits were kept at 25° C. for 2 days in 12 hr dark and 12 hr light conditions, after 2 days; part from each fruit halves was checked by Gus staining (Kapila et al. 1997; Spolaore et al. 2001) to confirm expression of MiEH2 under 35S promoter along with GusA, remaining part of fruit pulp stored in −80° C. until used for lactone analysis by gas chromatography. […] Lactones were analysed from control and test region of fruits. A total of 8 lactones viz. γ-butyrolactone, δ-valerolactone, γ-hexalactone, δ-hexalactone, γ-octalactone, γ-octalactone, γ-decalactone and δ-decalactone were detected from all tissues in GC-MS analysis.\nGC-MSD and GC-FID analysis for lactones was carried out using a 7890B GC system Agilent Technologies coupled with Agilent 5977A MSD (Agilent technologies, CA, USA). […] To understand effect of gene over expression by transient expression on lactone biosynthesis, qualitative and quantitative analysis for lactones alone was carried out in the present study. […] Absolute quantification was done using internal standard by normalizing concentrations of all the lactones with that of known concentration of nonyl acetate."}, "[3]": {"substrate": "c1ccc([C@H]2O[C@H]2c2ccccc2)cc1", "assay": "MiEH2 activity assay and enzyme kinetics with epoxide substrates (HRMS)", "format": "biochemical, Mangifera indica", "conditions": "other: recombinant MiEH2, substrate kinetics; pH 7.0", "protocol": "as §1"}, "[4]": {"substrate": "c1ccc([C@H]2O[C@@H]2c2ccccc2)cc1", "assay": "MiEH2 activity assay and enzyme kinetics with epoxide substrates (HRMS)", "format": "biochemical, Mangifera indica", "conditions": "other: recombinant MiEH2, substrate kinetics; pH 7.0", "protocol": "as §1"}, "[5]": {"molecular_target": "T1, MiEH2", "assay": "Optimum pH and temperature of MiEH2 activity", "format": "biochemical", "method": "Similar activity assays were carried out with protein expressed from empty vector for confirmation of EH2 activity. Optimum pH was determined by calculating activity at varied range of pH in phosphate citrate buffer at 30° C., whereas temperature optima was determined by calculating MiEH2 activity in phosphate citrate buffer pH 7 at various temperatures. After incubation and catalytic activity of EH 2, products were extracted in chloroform:methanol (2:1); completely dried in vacuum evaporator and reconstituted in the methanol. HRMS analysis carried out by accurate mass (molecular ion) identification. Identified products from assay reaction were confirmed with mass and retention time indices of authentic standards R,R hydrobenzoin and meso hydro benzoin. Extracted compounds from CSO and TSO assay reactions were separated by water (A):methanol (B) solvent gradient, 0-1 min 80% (A)/20% (B); 1-2 min 60% (A)/40% (B); 2-4 min 40% (A)/60% (B); 4-11 min 20% (A)/80% (B); 11-16 min 0% (A)/100% (B), hold for 2 min and again back to 80% (A)/20% (B) in 3 min with 2 min hold at flow rate 500 μl min^−1. […] Quantitative analysis of CSO and TSO assay products was done by plotting standard graph of product standards. Full scans for both programs were acquired on positive ion mode with AGC target value of 1E6, resolution of 70,000 at scan range 100-500 m/z, and maximum ion injection time (IT) of 250 ms."}, "[6]": {"conditions": "pBI121+SEQ ID No. 1 vs empty pBI121 vector in same fruit, 2 days post infiltration"}}, "data": [{"molecule": "c1ccc([C@H]2O[C@@H]2c2ccccc2)cc1", "note": "(relative stereo) [TSO, trans-stilbene oxide]", "values": [{"measurement": "product formation by MiEH2 with substrate (HRMS extracted ion chromatogram)", "setting": "[1]", "value": "product formation"}, {"measurement": "Vmax", "setting": "[1]", "value": "TSO- 1055.55 ± 55.55 μM min^−1mg^−1"}]}, {"molecule": "c1ccc([C@H]2O[C@H]2c2ccccc2)cc1", "note": "[CSO, cis-stilbene oxide]", "values": [{"measurement": "product formation by MiEH2 with substrate (HRMS extracted ion chromatogram)", "setting": "[1]", "value": "product formation"}, {"measurement": "Vmax", "setting": "[1]", "value": "CSO- 26.5252 ± 4.81 μM min^−1mg^−1"}]}, {"molecule": "SEQ ID No. 1: 957 bp polynucleotide encoding epoxide hydrolase 2, cloned in pBI121 plant expression vector, agroinfiltrated in mango (nucleic acid, cDNA, 957 bp polynucleotide encoding epoxide hydrolase 2, cloned in pBI121 plant expression vector, agroinfiltrated in mango) DNA: ATGGAAGATATACAGCACAGAATTGTGAATGTCAATGGCTTAAACATGCACGTGGCAGAGAAAGGCGAAGGTCCAGTCATTCTCTTCATTCACGGTTTTCCCGAACTGTGGTACTCCTGGCGGCATCAGATCATCGCCTTGGCTTCCCTCGGCTACCGAGCCATTGCTCCGGATCTACGTGGCTTCGGTGATACTGACGCGCCGCCGTCTGTCTCGAGTTACACGTGTTTCCACGTGGTGGGGGACCTCATTGGACTTCTCGACGTCGTTGCCTCTGATCGGGATAAGGTTTTCGTGGTGGGCCATGATTGGGGTGCTCTTATTGCTTGGTACTTGTGCTTGTTTAGACCGGATAAGGTCAAAGCTTTGGTCAACTTGAGTGTTGCGTTTAATCCCTGGAACCCCAAGAGGAAGCCACTTGAGGGTTTGAAAGCTGTTTATGGTGACGATTATTACATGATCAGATTTCAGGAGCCTGGTGAGATAGAAGCTGAGTTTGCCCAGATTGGTACTGAGACAGTTGTCAAGGAATTCTTTACATACAGGACACCTGGTCCTCTTTTTCTCCCTACAGGTAAAGGATTTGGACATCCCCCAAATGCTGAAATTGTCTTACCCTCTTGGCTATCAGAGGATGATGTTAAAAACTACACCAGCAAATTTGAGAAAGGCTTTACAGGAGGAGTGAACTATTACCGTAATATAAACGTGAACTGGGAACTTACAGCTCCTTGGGCCGGGAGTCAAATAAAGGTTCCTGTTAAGTTCATCGTGGGTGACCTGGACCTGACATATTATATGCCAGGAGTCAAGGATTACATACACAAAGGTGGGTTCAAGCGAGATGTGCCATTATTGGAAGAAGTGATTGTAATGGAAGGTGTAGGTCACTTCATTAATGGAGAAAAGGCTGATGCAATCAGTGAGCACATATACAACTTTTTTCAGAAGTTCTGA", "values": [{"measurement": "lactone content on transient over expression", "setting": "[2]; Alphonso mango", "value": "significant increase"}, {"measurement": "increase in γ-hexalactone content compared to control tissue", "setting": "[2]; [6]", "value": 1.96, "unit": "fold"}, {"measurement": "increase in δ-hexalactone content compared to control tissue", "setting": "[2]; [6]", "value": 1.98, "unit": "fold"}, {"measurement": "increase in δ-valerolactone content compared to control tissue", "setting": "[2]; [6]", "value": 1.46, "unit": "fold"}]}, {"molecule": "MiEH2 (Mangifera indica) (protein) MEDIQHRIVNVNGLNMHVAEKGEGPVILFIHGFPELWYSWRHQIIALASLGYRAIAPDLRGFGDTDAPPSVSSYTCFHVVGDLIGLLDVVASDRDKVFVVGHDWGALIAWYLCLFRPDKVKALVNLSVAFNPWNPKRKPLEGLKAVYGDDYYMIRFQEPGEIEAEFAQIGTETVVKEFFTYRTPGPLFLPTGKGFGHPPNAEIVLPSWLSEDDVKNYTSKFEKGFTGGVNYYRNINVNWELTAPWAGSQIKVPVKFIVGDLDLTYYMPGVKDYIHKGGFKRDVPLLEEVIVMEGVGHFINGEKADAISEHIYNFFQKF", "values": [{"measurement": "Km", "setting": "[3]", "value": "CSO- 0.165 ± 0.044 mM"}, {"measurement": "Km", "setting": "[4]", "value": "TSO- 0.113 ± 0.003 mM"}]}, {"molecule": "MiEH2: recombinant epoxide hydrolase 2 polypeptide of Mangifera indica, 318 amino acids, 6×His tagged (protein, listed as Mangifera indica, 6xHis tag, recombinant epoxide hydrolase 2 polypeptide of Mangifera indica, 318 amino acids, 6×His tagged) MEDIQHRIVNVNGLNMHVAEKGEGPVILFIHGFPELWYSWRHQIIALASLGYRAIAPDLRGFGDTDAPPSVSSYTCFHVVGDLIGLLDVVASDRDKVFVVGHDWGALIAWYLCLFRPDKVKALVNLSVAFNPWNPKRKPLEGLKAVYGDDYYMIRFQEPGEIEAEFAQIGTETVVKEFFTYRTPGPLFLPTGKGFGHPPNAEIVLPSWLSEDDVKNYTSKFEKGFTGGVNYYRNINVNWELTAPWAGSQIKVPVKFIVGDLDLTYYMPGVKDYIHKGGFKRDVPLLEEVIVMEGVGHFINGEKADAISEHIYNFFQKF", "values": [{"measurement": "Optimum temperature", "setting": "[5]; phosphate citrate buffer pH 7, various temperatures", "value": 45, "unit": "°C"}, {"measurement": "Optimum pH", "setting": "[5]; phosphate citrate buffer, 30° C., varied pH", "value": 8}]}]}
